Experimental data reported in the DeepSol protein solubility set.

experiment: soluble on expression in E. coli; label from the status in PepcDB or PDB records

| Sequence | soluble on expression in E. coli |
| --- | --- |
| MTDFLEIRPLTKEAFTPFGDVIETTPSSMRHINGGQTERHHALSAPEAAGEGARIILNIFRGQPRVFPHKIDMMERHPLGSQSFSPLSGRPFLVVVAQDDGGRPARPQVFLARGDQGVNYRRNVWHYPLMPLQAVSDFLVADREGPGNNLEEYFFDEPFMIAEPSL | not soluble |
| MTDIDAIIIGAGVIGLATARELSMHGLSVIILESETEFGSATSSRNSEVIHAGLYYPAGSLKARLCVEGRQRLYDFCESHGVAHRHCGKLIVATSDDETPLLVALGAKGKANGCDDLELIDQRHALSLEPALACSSALLSPSTGIIDSHGYMLALLGEAQDHGAALALNAPFERAEAIGDGFRVHVGGKEPVSLTCRLLVNSAGLVAPMVAAMIEGLPSVAIPQARFAKGSYFSLTGKSPFSRLIYPAPHTHGLGVHLTLDLAGQARFGPDVEWVDTIDYAVDPRRMEGFGDAIRRYWPGLPEHTLAPAYSGIRPKISGPDEPAMDFRIDGPETHGFPGLVNLFGIESPGLTASLAIAGEIAARLEALEHHHHHH | not soluble |
| MTDKENFYSGFFLGRLPGSFDSRFLIKVACFQPGKEERNVFELTTDTKREEDYGEMVHFWVDKGPLQNKSFVRFEENYETFFIHENKMFDRIVHTDKDFYVGVNDLPDSDIYIHPDLGKMIDTRSIVTPGKKYNFITFEVKQNENNSFDIEIVGGEVQGKEKNSEEPSAKEKIIQKMEQVHEVMKVEYEYNKNEETANWDVIGHLKLIKFYDKDLTSGLRPVLRLMDNRHVALFKKQRETMPIKMIKVIEVDGIWKDDVNFVPQEGTLLPTDHDEKTVVLLGNDYRHKFERLFKREDVFRLESNNTLTHLKFWQYGLEKI | not soluble |
| MTDNTLTPQMLTGLSTDHLVVLSGAHRLQPQAAEAFQAMQQAAKVAGFDLQPASTFRDFGRQLAIWNGKFRGERPVLDQDSQPIDIFSLDTAARCEAILRWSALPGTSRHHWGSDLDIYDPSRLPTGEKLQLEPWEYDAGGYFYPLTQWLSAHMAEFGFYRPFATDNGGVAVEPWHLSYRPLAEQAEHLLTPKILLAAWQSQDVAGSEWLASHLPMIFSRFIYLK | not soluble |
| MTDTQYIGRFAPSPSGELHFGSLIAALGSYLQARARQGRWLVRIEDIDPPREVPGAAETILRQLEHYGLHWDGDVLWQSQRHDAYREALAWLHEQGLSYYCTCTRARIQSIGGIYDGHCRVLHHGPDNAAVRIRQQHPVTQFTDQLRGIIHADEKLAREDFIIHRRDGLFAYNLAVVVDDHFQGVTEIVRGADLIEPTVRQISLYQLFGWKVPDYIHLPLALNPQGAKLSKQNHAPALPKGDPRPVLIAALQFLGQQAEAHWQDFSVEQILQSAVKNWRLTAVPESAIVNSTFSNASC | soluble |
| MTDVRHCPAVLIAAPASGQGKTTVTAALARLHRNRGRKVRVFKCGPDFLDPMILERASGAAVYQLDMWMVGEQESRRLLWEAAGEADLILIEGVMGLFDGTPSSADLARHFGVPVLGVIDGTAMAQTFGALALGLARYQPDLPFAGVLANRVGTLRHAQLLEGSLTEGLRWYGALSRETDIELPSRHLGLVQASELNDLDLRLDAAAEALASSCQVELPPAVSFAAPTPVACAPLLKGVRIAVARDEAFAFTYGASLDLLRAMGAQLSFFSPIHDTQLPDADSLYLPGGYPELHHQALARNSSMLQAIRAHHAAGKPLLAECGGMLYLLDSLTDVEGQRAELLGLLPGDAVMQKRLAALALQAVDLPEGSLRGHTYHHSLTSTELLPIARGLSPNGGRGAEAVYRQGRMTASYVHFYFPSNPAAVAALFAPGAPVEPVLAEGVAGELEHHHHHH | not soluble |
| MTEDERFAWLQLAFTPYIGAESFLLLMRRFGSAQNALSAPAEQVAALIRHKQALEAWRNAEKRALARQAAEAALEWEMRDGCRLMLLQDEDFPEMLTQGLTAPPVLFLRGNVQLLHKPSAAIVGSRHATPQAMRIAKDFGKSLGGKGIPVVSGMASGIDTAAHQGALQAEGGTIAVWGTGIDRIYPPVNKNLAYEIAEKGLIVSEFPIGTRPYAGNFPRRNRLIAALSQVTLVVEAALESGSLITARLAAEMGREVMAVPGSIDNPHSKGCHKLIKDGAKLVECLDDILNECPGLLQNTGASSYSINKGIPEKRITAVQTASDQLSLPEGKMPSEKTENRPVGGSILDRMGFDPVHPDVLAGQLAMPAADLYAALLELELDGSVAAMPGGRYQRIRT | not soluble |
| MTEDNIAPITSVKRLVTDKCTYKDNELLTKYSYENAVVTKTASGRFDVTPTVQDYVFKLDFEKKPEKLGIMLIGLGGNNGSTLVASVLANKHNVEFQTKAKGVKQPNYFGSMTQCSTLKLGIDAEGNDVYAPFNSLLPMVSPKHFVVSGWDINNADLYEAMQRSQVLEYDLQQRLKAKMSLVKPLPSIYYPDFIAANQDERANQCINLDEKGNVTTRGKWTHLQRIRRDIQNFKEENALDKVIVLWTANTERYVEVSPGVNDTMENLLQSIKNDHEEIAPSTIFAAASILEGVPYINGSPQNTFVPGLVQLAEHEGTFIAGDDLKSGQTKLKSVLAQFLVDAGIKPVSIASYNHLGNNDGYNLSAPKQFRSKEISKSSVIDDIIASNDILYNDKLGKKVDHCIVIKYMKPVGDSKVAMDEYYSELMLGGHNRISIHNVCEDSLLATALIIDLLVMTEFCTRVSYKKVDPVKEDAGKFENFYPVLTFLSYWLKAPLTRPGFHPVNGLNKQRTALENFLRLLIGLPSQNELRFEERLL | soluble |
| MTEEVGQKLLESLSLFKLGDIGYARIECELLTTFLEEQLENNLDSLSIHELSTNLIRNRICCREFIESRPAKKWVFLIFRLARTLFRDKTRIATFHSVNLHSEFVQVFWRNLTYQTKSYRNCKFQTFQFIASRFLRSEHDWNVTVVNCLNVTQKLIDNGENARKFVDCNLEDAVLVLLATRQMTVLQHSLEILGRLSDWSTTCRENLLCISLLRILSCEEQAREQIRIYDGVPTLLGLLSIKNSRLQWHVAWTLAQLAEQHETSLEIAQLGGISLIFAAISNPKPPGKAVGDWVAMLTGLTALLAQLAQASSNQQLMSNANGVYILGKLLAIKKNVTTDETIDSWDLLQCSIFRVLRLMYTFERSRQLLKKVLPTEIFEKFVDVGNYNSVLTDYDQIAKMYDNLIEENIEIMKDWETVNERRQAVGEVGEYELLDQLGAGAFGCVYTVRKKAQSHSENPAKLLALKEIFMTNLNDRESDKSFGDMISEVKIIKQQLRHPNIVRYRRIFVENHRLYIVMDLIQGCSLRDLIITMKEKKGNFEEKKIWAMVVQMMLALRYLHKEKQIVHRDLKPNNIMMTTDERVVITDFGLAKQKGPEYLKSAAGTIIYSCPEIVQNLPYGEKADIWSFGCCIYEMCQLQPVFHSTNMLTLAMQIVEAKYDPLNEMWSDDLRFLITSCLAPDPSARPDILKVSGMCGVRLLEYLDDVARQQASTSDMTASQSSYNIKIDESPSSLNSSTSSYKRPGRSSKTSGSGKLPPINPAPRRNHSMSAGETPRPSSIVCLPRITDKYSVMFPSAPSAIPSRRRVQTCSTEHPARSSSSTELKVSKQSDGLTVSSNVLRQIQDPVLTILNQIHRILVVTDKETISTSMNHQRRLVEMFRKNLLGRENDAVQMKTHLRKLAAESPEEIQMNLGFSDFRPVLVQSHINGYQKDQKVTKITYEQLSACIECLIAENPAAK | soluble |
| MTEFDNLTWLHGKPQGSGLLKANPEDFVVVEDLGFTPDGEGEHILLRILKNGCNTRFVADALAKFLKIHAREVSFAGQKDKHAVTEQWLCARVPGKEMPDFSAFQLEGCKVLEYARHKRKLRLGALKGNAFTLVLREISDRRDVETRLQAIRDGGVPNYFGAQRFGIGGSNLQGALRWAQSNAPVRDRNKRSFWLSAARSALFNQIVHQRLKKPDFNQVVDGDALQLAGRGSWFVATSEELPELQRRVDEKELMITASLPGSGEWGTQRAALAFEQDAIAQETVLQSLLLREKVEASRRAMLLYPQQLSWNWWDDVTVELRFWLPAGSFATSVVRELINTMGDYAHIAELEHHHHHH | soluble |
| MTEIERKFLVATFPDGELHAVPLRQGYLTTPTDSIELRLRQQGTEYFMTLKSEGGLSRQEYEIQIDVTQFEMLWPATEGRRVEKTRYSGKLPDGQLFELDVFAGHLSPLMLVEVEFLSEDAAQAFIPPPWFGEEVTEDKRYKNKALALSIP | soluble |
| MTELERHLLNALEQLQQDYMQRLNEWESAFVELQKMFSLTQRDNAMLNEQVMQLSQQVQHLSERTERLSQLYSENRRLEHHHHHH | not soluble |
| MTEMAKGSVTHQRLIALLSQEGADFRVVTHEAVGKCEAVSEIRGTALGQGAKALVCKVKGNGVNQHVLAILAADQQADLSQLASHIGGLRASLASPAEVDELTGCVFGAIPPFSFHPKLKLVADPLLFERFDEIAFNAGMLDKSVILKTADYLRIAQPELVNFRRTA | soluble |
| MTENTLDPAADLLERLGDKRFRTILADPPWQFQNRTGKMAPEHKRLNRYGTMSLEAIAGLPVERLTADTAHLYLWVPNALLLEGLKVMEAWGFTYKTNLVWHKIRKDGGPDGRGVGFYFRNVTELVLFGVRGKNARTLAAGRRQVNFLATRKREHSRKPDEMYGIIESCSPGPYLELFARGARDRWSVWGNEADENYYPRWNTYANHSQAEICPFEAAALEHHHHHH | soluble |
| MTEQSVKNTPQHETQSKPKQKTVKLIIKRQDTSDSKPYEETFEIPYRENLNVIACLMEIRRNPVNIKGEKTTPVVWDMNCLEEVCGACSMVINGRARQSCSAIVDQLEQPIRLEPMNTFPVIRDLQVDRSRMFDNLKRMKAWIPIDGTYDLGPGPRMPEKKRQTAYELSKCMTCGVCLEVCPNVTENNKFVGAQAISQVRLFNLHPTGSMTKDERLNALMGTGGLQQCGNSQNCVNACPKGIPLTTSIAAMNRETTFHMFKSFFGSDHEVE | not soluble |
| MTESPTTHHGAAPPDSVATPVRPWSEFRLTPAEAAAAAALAARCAQRYDETDGPEFLLDAPVIAHELPKRLRTFMARARLDAWPHALVVRGNPVDDAALGSTPVHWRTARTPGSRPLSFLLMLYAGLLGDVFGWATQQDGRVVTDVLPIKGGEHTLVSSSSRQELGWHTEDAFSPYRADYVGLLSLRNPDGVATTLAGVPLDDLDERTLDVLFQERFLIRPDDSHLQVNNSTAQQGRVEFEGIAQAADRPEPVAILTGHRAAPHLRVDGDFSAPAEGDEEAAAALGTLRKLIDASLYELVLDQGDVAFIDNRRAVHGRRAFQPRYDGRDRWLKRINITRDLHRSRKAWAGDSRVLGQR | soluble |
| MTESTLAFVFPGQGSQSLGMLAELSELHPQIRETFAEASEGAGVDLWALSQGGPEEMLNRTEYTQPALLAAGVAVWRLWTAQRGQRPALLAGHSLGEYTALVAAGVLSLHDGAHLVRLRGQFMQAAAPAGVGAMAAVLGAEDAVVLEVCAEAAGSQVVVPANFNSPGQIVIGGDAAAVDRALALLAERGVRKAVKLAVSVPSHTPLMRDAANQLGEAMAGLSWHAPQIPVVQNVDARVHDGSAAIRQALVEQLYLPVQWTGCVQALASQGITRIAECGPGKVLSGLIKRIDKSLDARPLATPADYAGALDAWAH | soluble |
| MTETIKVSESLELHAVAENHVKPLYQLICKNKTWLQQSLNWPQFVQSEEDTRKTVQGNVMLHQRGYAKMFMIFKEDELIGVISFNRIEPLNKTAEIGYWLDESHQGQGIISQALQALIHHYAQSGELRRFVIKCRVDNPQSNQVALRNGFILEGCLKQAEFLNDAYDDVNLYARIIDSQ | soluble |
| MTFLLKSCSTFFEKFCCCCKKYESEWNTQLESISLFAARRGFTDGEPYLILFGLCPNANKTFIVSENKLSDSNICLGDFLVACSDSPKNLKNFKKVPYPLDVTVEGDYAIISYSSMEAIKDISGILIFQTTDFGPIRSLNQNLDLDEYNITVHATGVSASGHVIELRAKAQPASNYRNSSVYENPSFLDDLSDEPLEIKKTISNNSLDGFSMEQLIQQLPTLELGEAENSVRVPQNLSAPRLMKAFVYSVHQYPHTKFHFLWICDIMEKSILKLPQYDFELGYFFEGIFKQKSNGKWECEQYNNKIEPLINGTVVINEYNGNEKVELTTTVTNYKPKNNTRKWPEVEAKYLGVVYDRHNKLPKNCEGQKVEVQMMKIDKEQYGWVITDILNE | not soluble |
